# Reference: patent US20100249184A1, “INDUCTION AND/OR MAINTENANCE OF TUMOR DORMANCY BY DISRUPTION OF UROKINASE PLASMINOGEN ACTIVATOR RECEPTOR-INTEGRIN INTERACTION” (MOUNT SINAI SCHOOL OF MEDICINE, priority 2007, published 2010)
# Entries after “also recorded” stand apart in the source; their conditions may differ.
# Target: T1, purified α3β1-integrin (Homo sapiens, UniProt P05556+P26006)
# T1 construct: purchased Chemicon International (Temecula, Calif.)
# Experiment: Solid phase dot-ELISA with α3β1-integrin
# Type: binding
# Conditions: α3β1-integrin 750 ng/ml, increasing concentrations of immobilized suPAR or peptide
# Procedure: FIGS. 1A-H show the interaction between α5β1-integrin and immobilized uPAR and uPAR-derived synthetic peptides through solid-phase dot-ELISA. […] Bound integrin was detected with anti-α5 integrin antibody followed by goat anti-rabbit IgG (H+L) HRP conjugated secondary antibody and developed with enhanced chemiluminescence (“ECL”). FIG. 1B is a graph showing that binding of integrin to suPAR is saturable. SuPAR (1.5 μg) was immobilized on nitrocellulose membrane in triplicates, incubated with 0, 0.1, 0.5, 1, 2, and 4 μg/ml of α5β1-integrin and tested for integrin binding as in FIG. 1A. The dots were scanned with NIH Image. Mean and SE are shown. […] Peptides representing regions located in each of the three uPAR-domains were immobilized, incubated with α5β1-integrin, and analyzed as in FIG. 1A. Only peptide 240-248 binds α5β1-integrin. FIG. 1D is a graph showing that peptide 240-248 inhibits integrin binding to suPAR. The α5β1-integrin (750 ng/ml) was pre-incubated for 15 min at room temperature with 100 fold molar excess of 240-248 or 17-24 peptides, or with no peptide (Control) and the mixtures were applied to immobilized suPAR (1.5 μg), 2 dots per mixture, and developed as in FIG. 1A. […] Bound integrins were detected with the appropriate previously titrated antibodies followed by goat anti-rabbit IgG (H+L) HRP conjugated secondary antibody and detection with ECL. […]
# T1 sequence (P26006 33-872 limits assumed): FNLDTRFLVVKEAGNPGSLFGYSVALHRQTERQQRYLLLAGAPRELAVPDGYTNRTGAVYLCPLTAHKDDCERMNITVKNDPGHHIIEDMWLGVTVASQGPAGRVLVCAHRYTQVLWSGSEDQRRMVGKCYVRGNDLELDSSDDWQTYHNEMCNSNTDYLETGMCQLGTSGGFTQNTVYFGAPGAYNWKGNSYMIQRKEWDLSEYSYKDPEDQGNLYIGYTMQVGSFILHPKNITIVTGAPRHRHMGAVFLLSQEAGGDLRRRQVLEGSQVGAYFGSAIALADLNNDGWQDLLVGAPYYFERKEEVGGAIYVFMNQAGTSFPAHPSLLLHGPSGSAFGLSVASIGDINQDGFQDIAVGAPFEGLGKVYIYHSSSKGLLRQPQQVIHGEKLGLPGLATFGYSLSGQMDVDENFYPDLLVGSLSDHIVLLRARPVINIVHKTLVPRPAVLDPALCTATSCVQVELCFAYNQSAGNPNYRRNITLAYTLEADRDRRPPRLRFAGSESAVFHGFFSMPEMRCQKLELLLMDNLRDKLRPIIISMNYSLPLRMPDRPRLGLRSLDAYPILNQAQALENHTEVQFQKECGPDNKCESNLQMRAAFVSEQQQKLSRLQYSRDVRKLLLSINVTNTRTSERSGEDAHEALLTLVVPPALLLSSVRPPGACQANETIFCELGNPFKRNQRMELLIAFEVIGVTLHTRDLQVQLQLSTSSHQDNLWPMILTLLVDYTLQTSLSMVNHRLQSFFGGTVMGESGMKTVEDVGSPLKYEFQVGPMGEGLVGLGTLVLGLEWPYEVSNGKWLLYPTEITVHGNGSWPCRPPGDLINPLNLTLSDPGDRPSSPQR
# T1 sequence (P26006 873-1051 limits assumed): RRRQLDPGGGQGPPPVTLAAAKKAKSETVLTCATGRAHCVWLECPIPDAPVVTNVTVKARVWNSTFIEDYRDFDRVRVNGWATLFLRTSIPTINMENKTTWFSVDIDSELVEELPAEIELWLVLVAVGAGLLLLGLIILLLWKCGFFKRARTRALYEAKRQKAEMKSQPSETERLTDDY
# T1 sequence (P05556 21-798): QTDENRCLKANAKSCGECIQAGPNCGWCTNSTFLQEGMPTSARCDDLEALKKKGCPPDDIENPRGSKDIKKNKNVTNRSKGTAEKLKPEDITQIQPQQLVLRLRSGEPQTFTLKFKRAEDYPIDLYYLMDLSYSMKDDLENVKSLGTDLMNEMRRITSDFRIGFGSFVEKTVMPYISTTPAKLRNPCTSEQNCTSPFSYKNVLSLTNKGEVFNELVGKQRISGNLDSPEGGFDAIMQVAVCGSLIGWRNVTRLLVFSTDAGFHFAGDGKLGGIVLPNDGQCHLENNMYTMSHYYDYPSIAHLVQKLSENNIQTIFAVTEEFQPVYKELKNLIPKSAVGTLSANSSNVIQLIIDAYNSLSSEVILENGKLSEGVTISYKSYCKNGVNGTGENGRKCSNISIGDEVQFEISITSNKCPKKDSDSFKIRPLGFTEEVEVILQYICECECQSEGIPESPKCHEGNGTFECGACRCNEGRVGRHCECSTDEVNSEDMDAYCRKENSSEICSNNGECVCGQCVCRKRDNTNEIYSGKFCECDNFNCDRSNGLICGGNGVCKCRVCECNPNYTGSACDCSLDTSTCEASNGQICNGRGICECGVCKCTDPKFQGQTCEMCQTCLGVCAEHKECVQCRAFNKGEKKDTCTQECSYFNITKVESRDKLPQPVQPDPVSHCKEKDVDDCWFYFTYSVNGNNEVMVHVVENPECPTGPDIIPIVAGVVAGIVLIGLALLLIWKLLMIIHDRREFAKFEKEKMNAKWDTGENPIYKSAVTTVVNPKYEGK
substance,measurement,value
"peptide 240-248: synthetic uPAR-derived peptide, domain III residues 240-248: GCATASMCQ (SEQ ID NO:9)",α3β1-integrin binding compared to α5β1-integrin,dots of much lesser intensity; also recorded: bound only weakly
